Measurements: paper PMC4968546, “Heterologous Production and Characterization of Two Glyoxal Oxidases from Pycnoporus cinnabarinus” (Applied and Environmental Microbiology, 2016)

Assays:
Assay in all cases: HRP/ABTS coupled H2O2 assay, A420, Lineweaver-Burk
Assay type in all cases: biochemical, Trametes cinnabarina
Details in all cases: 50 mM sodium 2,2-dimethylsuccinate, pH 6, 30°C, O2 as co-substrate, HRP, 0.1 mM ABTS
[1] = substrate: O=CC(=O)O
From the text: (§1) HRP/ABTS coupled H2O2 assay, A420, Lineweaver-Burk on PciGLOX1

[2] = substrate: O=CC=O
From the text: as §1

[3] = substrate: CC(=O)C=O
From the text: as §1

[4] = substrate: OCC(O)CO
From the text: (§2) HRP/ABTS coupled H2O2 assay, A420, Lineweaver-Burk on PciGLOX2

[5] = substrate: O=CC(=O)O; remark: listed apart in the source
From the text: as §2

[6] = substrate: O=CC=O; remark: listed apart in the source
From the text: as §2

[7] = substrate: CC(=O)C=O; remark: listed apart in the source
From the text: as §2

B1: PciGLOX1 (Trametes cinnabarina) (protein)
chain: APSAPGWRFDLKAERSGIVALESIVVSPTLVLWFDRASDDPLQINNHSAWGALWNLETSTVRPLNVLTNSFCASGALLSNGSMASVGGDPRGFPGNPAINPGNQAIRIFEPCASPTGDGCTVFEDPQTLHLLEDRWYPSSIRIFDGSLLIVGGTHVNENFYNLHPANSFEFFPPKESTPRPSAFLERSLPANLFPRIFALPDGKVFMVANNQSIIYDIEANTERILPDIPNNVRVTNPIDGSAILLPLTPPDYIPEVLVCGGTSTDPLDPSLLSSQTPATTQCSRIRLDEEGIAKGWQVEHMLEPRTMPELVHIPNGQILIANGARTGFAAIKQVQDPIGNSNSDHAVLVPSIYTPDAPLGQRISNAGMPSSGIARVYHSSITLTPQGNFLIAGSNPNGNTTVGPGVKFPSEFRVQTLDPPFMFVERPKILNTPEKLAFNKTFTVPISVPSTLASPGAKVQVSLMDLGFSSHAFHSSARLVFMDATISRDRRSLTFTTPPNGRVFPPGPATVFLTIDGVTSEGAWVMMGSGNSPPTLE
notes: secreted from Aspergillus niger D15#26; native 18-aa signal peptide … replaced by A. niger glucoamylase prepro (removed in processing); ORF 556 aa; N-terminus APSA; N-glycosylated, 70 kDa (about 60 kDa deglycosylated)
B1 gave a Km [1] of 88 µM, a Vmax [1] of 192 µmol/min/mg and a kcat [1] of 188 s⁻¹. The kcat/Km [1] was 2.14e+06 M⁻¹ s⁻¹, the Km [2] was 13100 µM and the Vmax [2] was 85.3 µmol/min/mg. For the same protein, the kcat [2] was 83 s⁻¹, the kcat/Km [2] was 6340 M⁻¹ s⁻¹ and the Km [3] was 1300 µM. It also gave a Vmax [3] of 77.3 µmol/min/mg, a kcat [3] of 76 s⁻¹ and a kcat/Km [3] of 58500 M⁻¹ s⁻¹.

B2: PciGLOX2 (Trametes cinnabarina) (protein)
chain: APSTPTGWQFNLKAERSGIVALESIVVSPTLVVFFDRATNDPLQINNHSAWGALWNLETSTVRALDVLTNSFCASGALLSNGTMASIGGDPNGFPGNPAIHPGTQAIRLFEPCDSPTGEGCTLFEDPVTLHLLEKRWYPSSVRIFDGSLLIVGGMHEETPFYNTDPALSFEFFPPKESTPRPSEFLNRSLPANLFPRVFALPDGKVFMVANNQSIIYDIEANTERILPDIPNNVRVTNPIDGSAILLPLSPPDFVPEVLVCGGTQTDTIDPSLLTSQTPASSQCSRIRLDEEGIARGWEVEHMLEGRMMPELVHLPNGQVLIANGARTGFAAIASVSDPVGGSNADHAVLVPSLYTPDAPLGTRISNVGLPSSGIARVYHSSITLTPQGNFLIAGSNPNNNSSVTAGVKFPSEFRVQTLDPPFMFVERPKILSMPKKLAFGKSFTVPIAVPSTLAHPGAKVQVSLMDLGFSSHAFHSSARLVFMNAKISQDGKSLTFTTPPNGRVYPPGPATIFLTIDDVTSEGAWVMMGSGNPPPTLE
notes: secreted from Aspergillus niger D15#26; ORF 559 aa; N-terminus APST; N-glycosylated, 70 kDa (about 60 kDa deglycosylated)
B2 showed a Km [4] of 9400 µM, a Vmax [4] of 6.42 µmol/min/mg and a kcat [4] of 0.6 s⁻¹. For the same protein, the kcat/Km [4] was 63 M⁻¹ s⁻¹, the Km [5] was 100 µM and the Vmax [5] was 17.9 µmol/min/mg. For the same protein, the kcat [5] was 1.7 s⁻¹, the kcat/Km [5] was 17000 M⁻¹ s⁻¹ and the Km [6] was 2200 µM. The Vmax [6] was 15 µmol/min/mg, the kcat [6] was 1.4 s⁻¹ and the kcat/Km [6] was 636 M⁻¹ s⁻¹. For the same protein, the Km [7] was 200 µM and the kcat [7] was 1.4 s⁻¹.
